Experimental data reported in patent US20230158179A1 (RAYZEBIO, published 2023).
Bridge positions count the residues as written; N and C are the ends. Square brackets hold non-standard residues; d marks the D form. Phe(3-Ph) = N[C@@H](Cc1cccc(-c2ccccc2)c1)C(=O)O; Bip = N[C@@H](Cc1ccc(-c2ccccc2)cc1)C(=O)O; Phe(3-Cl) = N[C@@H](Cc1cccc(Cl)c1)C(=O)O; NMeY = CN[C@@H](Cc1ccc(O)cc1)C(=O)O; NMeF = CN[C@@H](Cc1ccccc1)C(=O)O; Cba = N[C@@H](CC1CCC1)C(=O)O; Chg = N[C@H](C(=O)O)C1CCCCC1

T1: Trop-2 on Trop-2 expressing cells (A431) (UniProt P09758 27-323, limits assumed)
T1 construct: whole, on cells; also called tumor-associated calcium signal transducer 2
T1 sequence (looked up): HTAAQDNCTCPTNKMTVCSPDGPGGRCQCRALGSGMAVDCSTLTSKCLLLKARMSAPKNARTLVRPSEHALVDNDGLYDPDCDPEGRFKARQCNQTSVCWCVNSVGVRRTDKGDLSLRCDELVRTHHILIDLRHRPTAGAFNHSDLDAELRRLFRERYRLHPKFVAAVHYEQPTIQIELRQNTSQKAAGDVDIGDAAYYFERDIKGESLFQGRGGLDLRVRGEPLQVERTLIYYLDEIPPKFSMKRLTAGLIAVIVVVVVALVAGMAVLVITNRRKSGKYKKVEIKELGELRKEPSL


Experiments:
[1] = target: T1, Trop-2 on Trop-2 expressing cells (A431); assay: flow cytometry on A431 cells, procedure of the PSMA cell assay; grade legend paragraph 462: 0 nM < A <= 100 nM
Human Serum Albumin = target: T2, Human Serum Albumin (human, UniProt P02768 25-609); assay: HSA-HPLC, immobilised HSA column, estimated from retention time; grade legend paragraph 440: 90% < A <= 100%
T2 construct: Immobilised on the HPLC column; also called HSA
From the text: HSA-HPLC method (measurement of drug protein binding by immobilized human serum albumin-HPLC). A 13-minute HPLC (Thermo Vanquish Horizon with Diode Array Detector) gradient method was used to determine the HSA (Human Serum Albumin) binding of novel compounds using a chemically bonded protein stationary phase (ChiralPAK HSA HPLC column, 50×4 mm). The HSA binding values were derived from the gradient retention times that were converted to the logarithm of the equilibrium constant using data from a calibration set of molecules. The % bound to plasma values for the calibrator compounds were converted to the linear free energy values using the following equation: LogK=log[% PPB/(101−% PPB)]. The logarithmic value of the gradient retention times from the experiment were plotted against the linearized values of the percent bound to plasma. The slope and the intercept were used to convert the retention times to linear free energy values (LogK), from which the estimated % protein binding was calculated using the following equation: % Binding=[(101·10^LogK)/(1+10^LogK)]. Aqueous mobile phase (A) was 50 mM ammonium acetate solution, ph7.4 and the organic mobile phase (B) was 2-propanol. The flow rate was set at 0.350mL/min and injection volume was 5 uL, with samples prepared at 0.5 mg/mL concentration in 50:50 mobile phase. The initial LC conditions were conducted at room temperature, set at 0% B and ramped to 50% B over 8.5 minutes, then held at 50% B for 1.5 minutes before going back to initial conditions and re-equilibrating the column for 2.5 minutes. Chromatograms were recorded at 280 nm by a diode array UV absorption detector.

[2] = target: T3, His-Avi-PSMA (AcroBiosystems, PSA-H82Qb) (UniProt Q04609 44-750, biotinylated (immobilised by streptavidin-biotin chemistry)); assay: SPR, Biacore 8K, His-Avi-PSMA immobilised, single cycle kinetics, 1:1 model; grade legend paragraph 447: 0 nM < A <= 10 nM
T3 construct: Bought reagent; also called prostate-specific membrane antigen
Method: For analysis of peptide binding, a Biacore 8K instrument was used utilizing a SA chip. His-Avi-PSMA (AcroBiosystems, PSA-H82Qb) was immobilized on the chip using streptavidin-biotin chemistry at 25° C. in HBS-P+ buffer (10 mM HEPES, 150 mM NaCl, 0.05% Tween-20, pH 7.4) to a level of 800-2200 RU (dependent on the analyte molecular weight). A dilution series of peptides was prepared in this buffer with a final DMSO concentration of 1% with a top peptide concentration between 10-100 nM and 8 further 2-fold dilutions. The SPR analysis was run at 25° C. at a flow rate of 100 μL/min in HBS-P+ with 1% DMSO running buffer and with a 120 second association and 10,000 second dissociation using single cycle kinetics methodology. All data was analyzed using Biacore Insight Evaluation Software version 3. Data was fitted using a Langmuir 1:1 binding model.

[3] = target: T4, PSMA on PSMA expressing cells (LnCap) (UniProt Q04609 1-750, limits assumed); assay: flow cytometry on LnCap cells, biotinylated compound, detection with SA-A647; grade legend paragraph 460: 0 nM < A <= 100 nM
T4 construct: whole, on cells; also called prostate-specific membrane antigen

[4] = target: T5, FOLR1-Fc-Avi (AcroBiosystems, F01-H82F9) (UniProt P15328 25-234, biotinylated (immobilised by streptavidin-biotin chemistry)); assay: SPR, Biacore 8K, FOLR1-Fc-Avi immobilised, single cycle kinetics, 1:1 model; grade legend paragraph 444: 0 nM < A <= 10 nM
T5 construct: Bought reagent; also called folate receptor 1
Method: For analysis of peptide binding, a Biacore 8K instrument was used utilizing either a SA chip or a CAP chip. FOLR1-Fc-Avi (AcroBiosystems, F01-H₈₂F9) was immobilized on the chip using streptavidin-biotin chemistry at 25° C. in PBS-P+ buffer (20 mM phosphate, 2.7 mM KCl, 137 mM NaCl, 0.05% Tween-20, pH 7.4) to a level of 500-2500 RU (dependent on the analyte molecular weight). A dilution series of peptides was prepared in this buffer with a final DMSO concentration of 1% with a top peptide concentration at 50 or 100 nM and 8 further 2-fold dilutions. The SPR analysis was run at 25° C. at a flow rate of 100 μL/min in PBS-P+ with 1% DMSO running buffer and with a 120 second association and 10,000 second dissociation using single cycle kinetics methodology. All data was analyzed using Biacore Insight Evaluation Software version 3.) Data was fitted using a Langmuir 1:1 binding model.

[5] = target: T6, FOLR1 on FOLR1 expressing cells (IGROV1) (UniProt P15328 25-234, limits assumed); assay: flow cytometry on IGROV1 cells in human plasma/PBS, detection with SA-647; grade legend paragraph 454: 0 nM < A <= 100 nM
T6 construct: whole, on cells; also called folate receptor 1
T6 sequence (P15328 25-234 limits assumed): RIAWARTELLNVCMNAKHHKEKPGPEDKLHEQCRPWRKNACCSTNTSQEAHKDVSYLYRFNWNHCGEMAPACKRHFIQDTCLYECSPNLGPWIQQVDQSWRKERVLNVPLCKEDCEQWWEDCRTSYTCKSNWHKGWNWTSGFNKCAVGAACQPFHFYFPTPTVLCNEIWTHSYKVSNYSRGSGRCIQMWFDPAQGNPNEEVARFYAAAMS

T5 sequence (P15328 25-234 limits assumed): as above
T4 sequence (Q04609 whole entry): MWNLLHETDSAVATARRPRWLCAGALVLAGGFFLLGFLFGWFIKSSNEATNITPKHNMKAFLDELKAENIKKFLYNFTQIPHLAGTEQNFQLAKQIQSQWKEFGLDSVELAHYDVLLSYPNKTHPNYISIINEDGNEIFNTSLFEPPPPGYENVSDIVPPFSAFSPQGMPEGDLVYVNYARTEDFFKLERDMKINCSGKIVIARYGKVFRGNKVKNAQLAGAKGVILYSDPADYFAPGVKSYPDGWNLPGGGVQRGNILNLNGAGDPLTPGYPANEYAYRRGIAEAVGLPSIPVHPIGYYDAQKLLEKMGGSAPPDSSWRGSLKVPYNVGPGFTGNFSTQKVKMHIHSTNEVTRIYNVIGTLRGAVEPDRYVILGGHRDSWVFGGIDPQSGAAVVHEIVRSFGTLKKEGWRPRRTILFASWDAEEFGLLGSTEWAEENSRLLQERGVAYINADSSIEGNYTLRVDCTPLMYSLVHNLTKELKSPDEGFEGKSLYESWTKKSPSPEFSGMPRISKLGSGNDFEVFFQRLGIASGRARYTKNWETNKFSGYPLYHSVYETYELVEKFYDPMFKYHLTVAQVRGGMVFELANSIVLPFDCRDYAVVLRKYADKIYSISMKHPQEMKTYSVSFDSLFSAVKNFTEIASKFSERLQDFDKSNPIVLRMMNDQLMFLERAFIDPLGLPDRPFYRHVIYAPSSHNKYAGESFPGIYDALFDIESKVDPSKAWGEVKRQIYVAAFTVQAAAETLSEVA
T3 sequence (Q04609 44-750 limits assumed): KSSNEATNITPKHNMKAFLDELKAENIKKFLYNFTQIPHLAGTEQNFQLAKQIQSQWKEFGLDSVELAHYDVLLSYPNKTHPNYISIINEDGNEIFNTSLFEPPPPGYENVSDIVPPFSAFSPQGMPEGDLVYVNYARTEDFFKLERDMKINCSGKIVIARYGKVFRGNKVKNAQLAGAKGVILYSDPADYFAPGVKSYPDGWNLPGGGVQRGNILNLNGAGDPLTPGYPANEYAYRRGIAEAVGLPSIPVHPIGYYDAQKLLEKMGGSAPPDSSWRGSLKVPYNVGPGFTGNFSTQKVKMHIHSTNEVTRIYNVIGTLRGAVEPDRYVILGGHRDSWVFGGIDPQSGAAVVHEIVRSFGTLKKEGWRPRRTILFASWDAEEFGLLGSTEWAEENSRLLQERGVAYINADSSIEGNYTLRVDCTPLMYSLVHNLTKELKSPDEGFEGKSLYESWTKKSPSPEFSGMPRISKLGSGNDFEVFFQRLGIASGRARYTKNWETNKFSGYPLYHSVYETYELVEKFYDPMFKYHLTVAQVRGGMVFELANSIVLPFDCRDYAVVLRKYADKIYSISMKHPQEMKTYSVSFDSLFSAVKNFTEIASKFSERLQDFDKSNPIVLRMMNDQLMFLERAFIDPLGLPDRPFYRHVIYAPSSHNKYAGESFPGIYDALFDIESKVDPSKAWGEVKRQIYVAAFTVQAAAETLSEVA

Row | EC50 [1] [nM] | % Bound to HSA at r.t. (Human Serum Albumin) [%] | Kd [2] [nM] | EC50 [3] [nM] | Kd [4] [nM] | EC50 [5] [nM] | Binder
1 | ≤ 100 | > 90 | – | – | – | – | [dA]D[Bip]IYPA[Bip]SSES[NMeF]C-NH2 (bridge N-14; not fully specified (N-terminus, bridges), The cell assay followed the procedure with biotinylated compounds) [P-40]
2 | – | > 90 | ≤ 10 | ≤ 100 | – | – | W[Phe(3-Ph)]DVDSD[Cba]W[Phe(3-Ph)]DC-NH2 (bridge N-12; not fully specified (N-terminus, bridges)) [P-21]
3 | – | > 90 | – | – | ≤ 10 | ≤ 100 | DR[Chg][NMeF]D[Phe(3-Cl)]DT[NMeY][NMeY]WYC-NH2 (bridge N-13; not fully specified (N-terminus, bridges), The cell assay detects with SA-647, so a biotinylated form was used) [P-11]
4 | – | > 90 | – | – | ≤ 10 | – | DR[Chg][NMeF]DYDT[NMeY][NMeY]WYC-NH2 (bridge N-13; not fully specified (N-terminus, bridges)) [P-12]
5 | – | > 90 | – | – | ≤ 10 | ≤ 100 | ARL[NMeF]DYDT[NMeY][NMeY]WYC-NH2 (bridge N-13; not fully specified (N-terminus, bridges), The cell assay detects with SA-647, so a biotinylated form was used) [P-10]
